According to patent KR20200110551A:

Legend:
[1] = target: FMDV 혈청형 O (진천주) (Foot and Mouth Disease Virus serotype O (Jincheon strain))
[2] = target: FMDV 혈청형 O (진천주) (Foot and Mouth Disease Virus serotype O (Jincheon strain)); assay: cell-based or functional assay

B1: 단클론항체 8B87 (antibody, V domains shown)
VH: KKPGETVKISCKASGYTFTNYGVSWVKQVPGKGLKWMGWINTNTGKPAYADDFKGRFAFYLDTSASTAYLQISNLKNEDEATYFCVIYHDYLWFAYWGQGTLITVSA
VL: NIVLTQSPASLAVSLGQRATISCRASNSVDTYGNSFMHWYQQRPGQPPKLLIFLASDLESGVPGRFRGSGSRTDFTLTIDPVEADDAATYYCQQNYADPWTFGGGTKLEIK
- ELISA screening plate (O.D 450nm) [1]: 2.23 O.D 450nm
- VNT titer [2]: 64
